Numbering of substitutions follows the chain as printed.

Holding throughout (experiment): EMSA
Holding throughout (conditions): 40 mM Tris pH 7.6, 85 mM KCl, 19% glycerol, 4 mg/mL BSA, 0.5 mg/mL calf thymus DNA, 30 min at 30 C; 6% native PAGE in 0.5x TBE

Series [1] deals with T1, TorI-A46V A46V (Escherichia coli K-12 MG1655? (KplE1 prophage)) (UniProt Q2EES9).
T1 sequence: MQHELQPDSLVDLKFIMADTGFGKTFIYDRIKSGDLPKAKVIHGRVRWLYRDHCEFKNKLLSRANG

Series [2] addresses T2, TorI-F15L F15L (Escherichia coli K-12 MG1655? (KplE1 prophage)) (UniProt Q2EES9).
T2 sequence: T1 sequence with F15L, V46A

In series [3] the target is T3, TorI-F22I F22I (Escherichia coli K-12 MG1655? (KplE1 prophage)) (UniProt Q2EES9).
T3 sequence: T1 sequence with F22I, V46A

Series [4] deals with T4, TorI-L61S L61S (Escherichia coli K-12 MG1655? (KplE1 prophage)) (UniProt Q2EES9).
T4 sequence: T1 sequence with V46A, L61S

In series [5] the target is T5, TorI-M17V M17V (Escherichia coli K-12 MG1655? (KplE1 prophage)) (UniProt Q2EES9).
T5 sequence: T1 sequence with M17V, V46A

Series [6] concerns the target T6, TorI-R45Q R45Q (Escherichia coli K-12 MG1655? (KplE1 prophage)) (UniProt Q2EES9).
T6 sequence: T1 sequence with R45Q, V46A

Series [7] has as its target T7, TorI-Y28F Y28F (Escherichia coli K-12 MG1655? (KplE1 prophage)) (UniProt Q2EES9).
T7 sequence: T1 sequence with Y28F, V46A

Consider “CATCGAGAAGGCGGTATGGTTTTTCTTTCGGCTTTGCTGCTTCAATCTGCTTAACGGTGAGCATGGGTAAAAATCCGGTGGGTAAAATTATTTTATCCACTTTTTACCCGTCATGGAGTGCGGCTGTCAACGATCTGAAGCGAACCATGACGAACTGTAAATCTACGGAATGCTTGATATTCAGGGGATTTTGCGGACTGGTACGGATGGGAGCGAACTGATAAATGGTGTCCCCTGCAGGAATCGAACCTGCAATTAGCCCTTAGGAGGGGCTCGTTATATCCATT (double strand) [KplE1 attL]”, for which the binding entry is recorded as “binds more weakly” in series [1]; “binds more weakly” in series [2]; “no binding” in series [3]; “binds” in series [4]; “binds more weakly” in series [5]; “binds more weakly” in series [6]. The binding result in series [7] is reported as “binds more weakly”.

The values above are taken from article PMC3509656.
